Experimental data reported in paper PMC4359371, “Analysis of the crystal structure of an active MCM hexamer” (eLife, 2014).

B1: Sso-PfMCM chimera (Sulfolobus solfataricus MCM N-terminal domain fused to Pyrococcus furiosus MCM AAA+ ATPase domain) (enzyme, UniProt Q9UXG1 1-269, looked up)
chain: MEIPSKQIDYRDVFIEFLTTFKGNNNQNKYIERINELVAYRKKSLIIEFSDVLSFNENLAYEIINNTKIILPILEGALYDHILQLDPTYQRDIEKVHVRIVGIPRVIELRKIRSTDIGKLITIDGILVKVTPVKERIYKATYKHIHPDCMQEFEWPEDEEMPEVLEMPTICPKCGKPGQFRLIPEKTKLIDWQKAVIQERPEEVPSGQLPRQLEIILEDDLVDSARPGDRVKVTGILDIKQDSPVKRGSRAVFDIYMKVSSIEVSQKVLQELEISPEEEQIIKELAKRKDIVDAIVDSIAPAIYGYKEVKKGIALALFGGVSRKLPDGTRLRGDIHVLLVGDPGVAKSQILRYVANLAPRAIYTSGKSSSAAGLTAAAVRDEFTGGWVLEAGALVLADGGYALIDELDKMSDRDRSVIHEALEQQTISISKAGITATLNARTTVIAAANPKQGRFNRMKNPFEQIDLPPTLLSRFDLIFVLIDEPDDKIDSEVARHILRVRRGESEVVAPKIPHEILRKYIAYARKNIHPVISEEAMEEIEKYYVRMRKSVKKTKGEEEGIPPIPITARQLEALIRLSEAHARMRLSPIVTREDAREAIKLMEYTLKQIAMD
notes: SsoMCM N-terminal domain (SsoMCMN), Sulfolobus solfataricus MCM, aa 1-269; amplified from S. solfataricus genomic DNA (ATCC); PfMCM AAA+ domain (PfMCMAAA), Pyrococcus furiosus MCM, aa 257-361/729-966 = aa 257-966 with its intein (aa 362-728) genetically removed; lacks the C-terminal helix-turn-helix domain (aa 967-1049); numbers are database (intein-containing) numbers; Crystallised with Mg/ADP; …
B2: Pyrococcus furiosus MCM AAA+ ATPase domain, crystallized construct (aa 263-361/729-966) (domain or fragment, UniProt Q8U3I4 263-966, looked up)
chain: PEEEQIIKELAKRKDIVDAIVDSIAPAIYGYKEVKKGIALALFGGVSRKLPDGTRLRGDIHVLLVGDPGVAKSQILRYVANLAPRAIYTSGKSSSAAGLTAAAVRDEFTGGWVLEAGALVLADGGYALIDELDKMSDRDRSVIHEALEQQTISISKAGITATLNARTTVIAAANPKQGRFNRMKNPFEQIDLPPTLLSRFDLIFVLIDEPDDKIDSEVARHILRVRRGESEVVAPKIPHEILRKYIAYARKNIHPVISEEAMEEIEKYYVRMRKSVKKTKGEEEGIPPIPITARQLEALIRLSEAHARMRLSPIVTREDAREAIKLMEYTLKQIAMD
notes: PfMCM AAA+ domain, Pyrococcus furiosus MCM, aa 263-361/729-966 (intein aa 362-728 genetically removed); amplified from P. furiosus genomic DNA (ATCC); numbers are database (intein-containing) numbers; A different construct (aa 252-361/729-1049) was used for the unwinding experiments and is not this molecule; also called PfMCMAAA; PfMCM-AAA; not shown: His6, N-terminal, cleaved; SUMO, N-terminal, …

Assays:
[1] = target: the molecule itself; assay: crystal structure; Sso-PfMCM with Mg/ADP, hanging drop, 100 mM HEPES pH 7.6, 350 mM MgCl2, 3% PEG 3350; space group P6_(3), hexamer on a crystallographic threefold axis; 2.70 Å
[2] = target: the molecule itself; assay: crystal structure; PfMCMAAA with Mg/ADP, hanging drop, 50 mM sodium cacodylate pH 6.0, 50 mM magnesium acetate, 30% MPD, 5% glycerol; space group P1, 16 monomers in the asymmetric unit; 3.80 Å

Row | Protein | stoichiometry N [1] | stoichiometry N [2]
1 | B1 | 6 | –
2 | B2 | – | 16
